Target: the molecule itself
Test: cryo-EM structure

B1: measles virus fusion glycoprotein (F) (natural protein)
chain: QIHWGNLSKIGVVGIGSASYKVMTRSSHQSLVIKLMPNITLLNNCTRVEIAEYRRLLRTVLEPIRDALNAMTQNIRPVQSVASSRRHKRFAGVVLAGAALGVATAAQITAGIALHQSMLNSQAIDNLRASLETTNQAIEAIRQAGQEMILAVQGVQDYINNELIPSMNQLSCDLIGQKLGLKLLRYYTEILSLFGPSLRDPISAEISIQALSYALGGDINKVLEKLGYSGGDLLGILESRGIKARITHVDTESYFIVLSIAYPTLSEIKGVIVHRLEGVSYNIGSQEWYTTVPKYVATQGYLISNFDESSCTFMPEGTVCSQNALYPMSPLLQECLRGSTKSCARTLVSGSFGNRFILSQGNLIANCASILCKCYTTGTIINQDPDKILTYIAADHCPVVEVNGVTIQVGSRRYPDAVYLHRIDLGPPISLERLDVGTNLGNAIAKLEDAKELLESSDQILRSMKGLSSTSIVYILIAVCLGGLIGIPALICCCRGRCNKKGEQVGMSRPGLKPDLTGTSKSYVRSL
notes: also called MeV F; pre-fusion F
- stoichiometry N: 3

Source: PMC5928126 (Nature Communications, 2018)
